Source: US11306331B2, “Processes for the production of hydroxycinnamic acids using polypeptides having tyrosine ammonia lyase activity” (CysBio ApS, priority 2014, dated 2022)

T1: Rhodobacter sphaeroides RsTAL (Protein GI 126464011), His-tagged (N-terminal tag SEQ ID NO: 11) (Cereibacter sphaeroides, UniProt Q3IWB0)
T1 sequence (Q3IWB0 1-523): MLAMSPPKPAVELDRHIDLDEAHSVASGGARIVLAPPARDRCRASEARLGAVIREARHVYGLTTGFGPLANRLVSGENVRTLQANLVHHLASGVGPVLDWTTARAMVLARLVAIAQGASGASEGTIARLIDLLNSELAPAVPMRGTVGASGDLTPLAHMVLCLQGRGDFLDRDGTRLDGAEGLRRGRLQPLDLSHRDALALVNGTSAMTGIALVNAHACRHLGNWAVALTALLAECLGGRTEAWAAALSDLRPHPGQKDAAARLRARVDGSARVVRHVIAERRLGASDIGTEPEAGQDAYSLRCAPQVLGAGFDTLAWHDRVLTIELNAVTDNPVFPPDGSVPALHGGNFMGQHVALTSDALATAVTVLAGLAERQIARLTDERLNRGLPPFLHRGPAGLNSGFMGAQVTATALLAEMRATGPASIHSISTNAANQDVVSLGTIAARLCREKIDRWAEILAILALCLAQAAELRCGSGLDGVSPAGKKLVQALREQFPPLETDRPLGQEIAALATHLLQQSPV

B1: Flavobacterium johnsoniae FjXAL tyrosine ammonia lyase (Protein GI 146298870), SEQ ID NO: 1, His-tagged (N-terminal tag SEQ ID NO: 11) (Flavobacterium … (protein)
chain: MNTINEYLSLEEFEAIIFGNQKVTISDVVVNRVNESFNFLKEFSGNKVIYGVNTGFGPMAQYRIKESDQIQLQYNLIRSHSSGTGKPLSPVCAKAAILARLNTLSLGNSGVHPSVINLMSELINKDITPLIFEHGGVGASGDLVQLSHLALVLIGEGEVFYKGERRPTPEVFEIEGLKPIQVEIREGLALINGTSVMTGIGVVNVYHAKKLLDWSLKSSCAINELVQAYDDHFSAELNQTKRHKGQQEIALKMRQNLSDSTLIRKREDHLYSGENTEEIFKEKVQEYYSLRCVPQILGPVLETINNVASILEDEFNSANDNPIIDVKNQHVYHGGNFHGDYISLEMDKLKIVITKLTMLAERQLNYLLNSKINELLPPFVNLGTLGFNFGMQGVQFTATSTTAESQMLSNPMYVHSIPNNNDNQDIVSMGTNSAVITSKVIENAFEVLAIEMITIVQAIDYLGQKDKISSVSKKWYDEIRNIIPTFKEDQVMYPFVQKVKDHLINN

Columns and labels:
[1] = target: T1, Rhodobacter sphaeroides RsTAL (Protein GI 126464011), His-tagged (N-terminal tag SEQ ID NO: 11); assay: In vitro kinetics of purified His-tagged RsTAL (tyrosine/phenylalanine ammonia lyase activity, absorbance at 315/295 nm)
Method: Enzymatic assays were performed in 200 μL volumes in wells in a UV transparent 96-well plate, by following the increase in absorbance at 315 nm (pHCA) or 295 nm (CA). The reaction mixtures contained 2 μg of purified protein and were initiated by adding 1 mM tyrosine or 6 mM after equilibration to 30° C. The enzymatic activity was calculated as U/g, where U is defined as μmol substrate converted per minute.

[2] = test system: Saccharomyces cerevisiae CEN.PK102-5B; assay: Specific production of pHCA and CA by S. cerevisiae expressing TAL enzymes; type: cell-based; conditions: 72 h, 30° C., +/- standard deviation
Excerpt: A number of the previously characterized enzymes were characterized when expressed in Saccharomyces cerevisiae. Genes encoding HaXAL1 and FjXAL were synthesized with codon optimization for S. cerevisiae available by GeneArt (Life Technologies), and were named HaXAL1 Sc and FjXALSc. Genes were amplified using the oligonucleotide (refer to specific name) shown in Table 6, and inserted by uracil-excision into the vector pCfB132 together with the PPGK1 promoter amplified by primers PPGK1_fw and PPGK1_rv (Jensen et al., 2014). The finished plasmids were transformed into Saccharomyces cerevisiae CEN.PK102-5B (MAT a ura3-52 his3Δ1 leu2-3/112 MAL2-8c SUC2) using a standard lithium acetate transformation protocol and selected for on synthetic drop-out media plates lacking uracil.
Cells were grown in SC medium without uracil, and diluted into Delft medium or Feed-In-Time (FIT) medium (m2p-labs) supplemented with leucine and histidine. After 72 h of incubation at 30° C. with shaking, samples were taken for the analysis of optical density at 600 nm and for clarification of the supernatant, which was analyzed by HPLC as described in example 1. The specific production was calculated as micromolar (μM) concentration per unit of optical density of the culture at 600 nm and is shown in Table 4.

[3] = substrate: N[C@@H](Cc1ccc(O)cc1)C(=O)O; assay: In vitro kinetics of purified His-tagged FjXAL (tyrosine/phenylalanine ammonia lyase activity, absorbance at 315/295 nm); type: biochemical, Flavobacterium johnsoniae; conditions: other: FjXAL, 30° C, 1.56 μM to 200 μM tyrosine or 193 μM to 25 mM phenylalanine, pH 7.5
Method: (§1) The tyrosine ammonia lyase activity may for instance be determined in accordance to the following method: Enzymatic assays are performed in 200 μL volumes in wells in a UV transparent 96-well plate, by following the increase in absorbance at 315 nm (pHCA) using spectrophotometry or HPLC with UV detection. The reaction mixtures contain 2 μg of purified protein and are initiated by adding 1 mM tyrosine or 6 mM after equilibration to 30° C. The enzymatic activity is calculated as U/g, where U is defined as μmol substrate converted per minute. Negative controls contain no purified protein. Kinetic constants Km and vmax are determined from assays containing 1.56 μM to 200 μM tyrosine. See also Kyndt et al. (2002).
(§2) Four of the enzymes were further purified by His-tag purification as follows. A DNA linker (5′ phosphorylated oligonucleotides CBJP559 and CBJP560, Table 5) was inserted in place of the sequence between the NdeI and BgIII site in plasmid pCDFDuet-1. This would result in the addition of the amino acids MAHHHHHHENLYFQ (SEQ ID NO: 11) to the N-terminal end of the polypeptides. The resulting plasmid was amplified with primers CBJP575 and CBJP576 (table 5) and the genes were amplified and combined using the Gibson reaction (New England Biolabs). The PCR amplification used the same reverse primers as in example 1, but the forward primers matching the His-tag site of the linker (Table 5). Plasmids carrying the genes (e.g. FjXAL, FIG. 4) were transformed into electrocompetent E. coli BL21(DE3)pLysS cells (Life Technologies) and selected on LB plates containing 50 ug/mL streptomycin.
(§3) Strains expressing His-tagged versions of the enzymes were grown in LB media overnight at 37° C. and diluted into fresh LB media with 1 mM IPTG and growth was propagated overnight (approximately 18 h) at 30° C. Cells were harvested by centrifugation at 8000 rpm for 8 minutes, and disrupted by shearing into a buffer (50 mM Tris-HCl, 10 mM imidazole, 500 mM NaCl, 10% glycerol, pH 7.5). The homogenate was clarified by centrifugation at 10000 g for 10 min at 4° C., and the supernatant was loaded onto Ni2+-NTA resin column on an Äkta Pure system connected to a F9-C fraction collector (GE). Finally the fractions containing the purified polypeptide was dialyzed overnight against a buffer containing 50 mM Tris-HCl pH 7.5, 150 mM NaCl and 10% glycerol, flash-frozen in liquid nitrogen and stored at −80° C.
(§4) Enzymatic assays were performed in 200 μL volumes in wells in a UV transparent 96-well plate, by following the increase in absorbance at 315 nm (pHCA) or 295 nm (CA). […] The enzymatic activity was calculated as U/g, where U is defined as μmol substrate converted per minute.

[4] = substrate: N[C@@H](Cc1ccccc1)C(=O)O; assay: as above; type: biochemical, Flavobacterium johnsoniae; conditions: other: FjXAL, 30° C, 1.56 μM to 200 μM tyrosine or 193 μM to 25 mM phenylalanine, pH 7.5
Method: as §1, §2, §3, §4

Molecule	Kcat ([1]; 30° C, 1.56 μM to 200 μM tyrosine or 193 μM to 25 mM phenylalanine) [s⁻¹]	TAL/PAL ([1]; ratio of Kcat/Km for Tyr over Phe)	Specific production of CA ([2]; Delft + Tyr (10 mM)) [μM OD600-1]	Specific production of pHCA ([2]; Delft + Tyr (10 mM)) [μM OD600-1]	Specific production of CA ([2]; Delft medium) [μM OD600-1]	Specific production of pHCA ([2]; Delft medium) [μM OD600-1]	Specific production of CA ([2]; FIT + Tyr (10 mM)) [μM OD600-1]	Specific production of pHCA ([2]; FIT + Tyr (10 mM)) [μM OD600-1]	Specific production of CA ([2]; FIT medium) [μM OD600-1]	Specific production of pHCA ([2]; FIT medium) [μM OD600-1]	Km [3] [mM]	Km [4] [mM]	kcat [4] [s⁻¹]	kcat/Km [4] [M⁻¹ s⁻¹]
N[C@@H](Cc1ccc(O)cc1)C(=O)O [Tyr, tyrosine]	0.173	125	–	–	–	–	–	–	–	–	–	–	–	–
B1	–	–	0 ± 0	120 ± 16	0 ± 0	30 ± 3.5	0 ± 0	120 ± 19	0 ± 0	130 ± 16	0.0057	6.6	0.00817	1.23
